Source: publication PMC5715112

Tests used:
[1] = biological target: HIV integrase fused to the VP16 activation domain (pEF-VP16, CHO cells); assay: mammalian two-hybrid luciferase reporter assay in CHO cells; conditions: 48 h after transfection; Firefly luciferase normalised to Renilla; parent: est. 1.4; read off a plot
[2] = biological target: GAL4 DNA binding domain (DBD)-LEDGF IBD fusion (pM1, CHO cells); assay: two-hybrid; mammalian three-hybrid competition in CHO cells: GAL4 DBD-IBD bait, HIV IN-VP16 prey and a free competitor from pEF-BOS-cyto; Firefly/Renilla luciferase

GAL4 DNA binding domain (DBD)-LEDGF IBD fusion (pM1, CHO cells) I365A
response [1]: 0.02

GAL4 DNA binding domain (DBD)-LEDGF IBD fusion (pM1, CHO cells) R405A
response [1]: 1.3

GAL4 DNA binding domain (DBD)-LEDGF IBD fusion (pM1, CHO cells) V408A
response [1]: 0.4

GAL4 DNA binding domain (DBD)-LEDGF IBD fusion (pM1, CHO cells) K407A
response [1]: 3.3

GAL4 DNA binding domain (DBD)-LEDGF IBD fusion (pM1, CHO cells) K364A
response [1]: 0.08

GAL4 DNA binding domain (DBD)-LEDGF IBD fusion (pM1, CHO cells) L363A
response [1]: 0.25

GAL4 DNA binding domain (DBD)-LEDGF IBD fusion (pM1, CHO cells) D366A
response [1]: 0.02

GAL4 DNA binding domain (DBD)-LEDGF IBD fusion (pM1, CHO cells) K402A
response [1]: 0.6

free HIV IN (competitor, pEF-BOS-cyto, CHO cells) (enzyme)
percent inhibition of the luciferase signal of HIV IN-VP16 with Gal4-IBD [2]: 90%

GAL4 DNA binding domain (DBD)-LEDGF IBD fusion (pM1, CHO cells) F406A
response [1]: 0.04

GAL4 DNA binding domain (DBD)-LEDGF IBD fusion (pM1, CHO cells) L368A
response [1]: 0.01
